Assay results published in PMC9826837 (The Journal of Biological Chemistry, 2022).

Biological target: rat cardiac troponin I (cTnI), Ser22/23 bisphosphorylated (rat, UniProt P23693 1-211, phosphoserine at 22 and 23)
Assay: SEC-MALS

stoichiometry N: 1
B1: rat cardiac troponin T (cTnT) (natural protein)
chain: not shown
